Positions count from the first letter of the chain named. Read-outs that look alike come from different tables or passages of the source.
How the values were obtained:
[1] = biological target: T1, Pseudomonas fluorescens HPPD variant CO210d10, SEQ ID NO:9 (Pseudomonas sp., UniProt P80064, E334P/G335S/K338T); test: biochemical; details: read-out: pI50 (converted)
T1 construct: CO210d10; […]; Ala + His6 directly after the start Met (N); made in house; host or cells: E. coli

[2] = biological target: T2, Pseudomonas fluorescens HPPD variant CO212f3, SEQ ID NO:10 (Pseudomonas sp., UniProt P80064, A339V/E334G/G335W); test: biochemical; details: read-out: pI50 (converted)
T2 construct: CO212f3; […]; Ala + His6 directly after the start Met (N); made in house; host or cells: E. coli
T2 sequence (P80064 other isoform, or with tags, fused parts or gaps with the stated changes): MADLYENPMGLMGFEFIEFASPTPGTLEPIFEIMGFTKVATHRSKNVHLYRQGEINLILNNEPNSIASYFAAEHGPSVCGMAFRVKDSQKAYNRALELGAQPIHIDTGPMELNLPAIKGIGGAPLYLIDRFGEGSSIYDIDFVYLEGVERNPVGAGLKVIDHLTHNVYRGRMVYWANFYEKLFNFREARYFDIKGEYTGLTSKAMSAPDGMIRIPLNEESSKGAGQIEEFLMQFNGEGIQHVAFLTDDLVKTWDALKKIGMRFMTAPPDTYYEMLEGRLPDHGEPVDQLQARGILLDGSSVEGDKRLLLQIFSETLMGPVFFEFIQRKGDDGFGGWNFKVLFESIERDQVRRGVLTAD

[3] = biological target: Pseudomonas aeruginosa (strain ATX22717) HPPD Axmi305H, native, SEQ ID NO:57 (Pseudomonas aeruginosa, UniProt Q9I576); test: HPPD coupling assay, Axmi305H
Chain of Pseudomonas aeruginosa (strain ATX22717) HPPD Axmi305H, native, SEQ ID NO:57 (Q9I576 whole entry): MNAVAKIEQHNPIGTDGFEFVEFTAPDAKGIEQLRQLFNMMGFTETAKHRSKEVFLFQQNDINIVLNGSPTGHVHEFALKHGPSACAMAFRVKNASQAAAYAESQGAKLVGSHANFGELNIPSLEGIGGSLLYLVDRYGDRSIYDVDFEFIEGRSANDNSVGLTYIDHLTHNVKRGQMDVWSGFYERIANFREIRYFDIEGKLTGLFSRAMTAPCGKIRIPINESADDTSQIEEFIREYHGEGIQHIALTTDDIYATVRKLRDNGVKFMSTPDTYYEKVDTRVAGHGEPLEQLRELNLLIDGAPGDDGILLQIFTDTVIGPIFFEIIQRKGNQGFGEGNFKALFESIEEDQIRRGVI

[4] = biological target: T3, Pseudomonas fluorescens HPPD variant C024H11, SEQ ID NO:5 (Pseudomonas sp., UniProt P80064, G335W/P214L); test: biochemical
T3 construct: C024H11; […]; made in house; host or cells: E. coli (DH5alpha for library screening)
T3 sequence (P80064 other isoform, or with tags, fused parts or gaps with the stated changes): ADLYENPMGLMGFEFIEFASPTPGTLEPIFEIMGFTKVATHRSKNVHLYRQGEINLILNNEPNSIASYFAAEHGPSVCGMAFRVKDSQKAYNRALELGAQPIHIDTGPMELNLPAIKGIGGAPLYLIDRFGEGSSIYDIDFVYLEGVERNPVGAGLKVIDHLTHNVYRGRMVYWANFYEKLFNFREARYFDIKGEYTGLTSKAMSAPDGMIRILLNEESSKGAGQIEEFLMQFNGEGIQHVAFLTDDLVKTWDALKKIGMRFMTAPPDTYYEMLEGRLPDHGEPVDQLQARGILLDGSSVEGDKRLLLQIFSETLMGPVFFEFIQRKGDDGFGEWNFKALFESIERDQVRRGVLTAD

[5] = biological target: Pseudomonas fluorescens HPPD variant PfHPPDEvo40, SEQ ID NO:8 (Pseudomonas sp., UniProt P80064, A339E/E334P/G335S); test: HPPD inhibition, HPLC based assay, PfHPPDEvo40
[6] = biological target: T2, Pseudomonas fluorescens HPPD variant CO212f3, SEQ ID NO:10; test: biochemical
[7] = biological target: T4, Pseudomonas fluorescens HPPD variant PfHPPDEvo36 (serine for glutamic acid at 335, serine for tryptophan at 336, threonine for lysine at 339, glutamine for alan (Pseudomonas sp., UniProt P80064, A339Q/E334S/G335S/K338T)); type: biochemical
T4 construct: made in house; host or cells: E. coli (DH5alpha for library screening)
T4 sequence (P80064 other isoform, or with tags, fused parts or gaps with the stated changes): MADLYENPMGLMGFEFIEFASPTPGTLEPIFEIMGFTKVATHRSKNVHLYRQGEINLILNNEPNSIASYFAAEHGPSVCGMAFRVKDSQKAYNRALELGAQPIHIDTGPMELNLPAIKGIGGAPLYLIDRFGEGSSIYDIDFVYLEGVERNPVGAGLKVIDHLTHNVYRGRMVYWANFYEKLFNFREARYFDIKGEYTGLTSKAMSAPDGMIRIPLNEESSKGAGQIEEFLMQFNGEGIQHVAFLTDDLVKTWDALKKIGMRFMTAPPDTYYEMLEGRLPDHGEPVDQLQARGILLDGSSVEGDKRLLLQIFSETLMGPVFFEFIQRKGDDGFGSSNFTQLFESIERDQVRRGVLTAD
Method: The theoretical diversity of this library was 640. Screening was carried out as described in Example 3.

[8] = biological target: Pseudomonas aeruginosa HPPD Axmi305H (SEQ ID NO:57) variant Axmi305H-Evo41 (Pseudomonas aeruginosa, UniProt Q9I576, A342Q/E337P/G338W/K341A); test: biochemical
Chain of Pseudomonas aeruginosa HPPD Axmi305H (SEQ ID NO:57) variant Axmi305H-Evo41 (Q9I576 whole entry E337P/G338W/K341A/A342Q): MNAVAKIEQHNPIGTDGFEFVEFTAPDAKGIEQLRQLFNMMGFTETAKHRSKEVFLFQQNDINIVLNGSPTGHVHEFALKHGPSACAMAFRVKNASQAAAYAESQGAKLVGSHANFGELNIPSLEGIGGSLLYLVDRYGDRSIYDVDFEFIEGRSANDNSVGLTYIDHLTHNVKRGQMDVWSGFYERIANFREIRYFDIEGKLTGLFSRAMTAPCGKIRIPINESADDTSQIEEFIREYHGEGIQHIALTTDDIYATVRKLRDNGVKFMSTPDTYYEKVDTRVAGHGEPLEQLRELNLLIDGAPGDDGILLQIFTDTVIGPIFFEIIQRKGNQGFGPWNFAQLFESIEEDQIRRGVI
Method: This method is called the HGD assay.
The mutants generated by this approach were transformed into B121-DE3* cells and grown to saturation in LB media. […] By this method, active HPPD enzyme will produce a brown pigment after approximately 24 hours of growth on plates.

[9] = biological target: T5, Pseudomonas fluorescens HPPD variant PfHPPDEvo36 (serine for glutamic acid at 335, serine for tryptophan at 336, threonine for lysine at 339, glutamine for alanine at 340 relative to PfG336W), SEQ ID NO:7 (Pseudomonas sp., UniProt P80064, A339Q/E334S/G335S/K338T); test: biochemical
T5 construct: made in house; host or cells: E. coli (DH5alpha for library screening)

[10] = system: E. coli cells expressing HPPDs; test: Plating whole E. coli cells expressing HPPDs on media containing HPPD inhibitors; type: cell-based; details: whole E. coli cells on plates with 250 uM inhibitor, 18 hours at 37 degrees C
Method: Variants were also tested by plating whole E. coli cells expressing HPPDs on media containing various HPPD inhibitors. For these experiments, DH5alpha cells containing HPPD expressing plasmids were grown in LB media+kanamycin until an OD600 nm=0.5 was reached. Serial dilutions of cells were prepared in LB media+kanamycin corresponding to OD600 values of 0.016, 0.008, 0.004, and 0.002. Ten microliters of each dilution were plated in triplicate on plates containing no HPPD inhibitor, 250 uM TBT, 250 uM DKN and 250 uM mesotrione (MST). Plates were incubated for 18 hours at 37 degrees C.

[11] = system: HPPD; details: reaction stopped after 24 min
Method: Kon=K1 equals the association rate constant of the […] and Koff=K−1 equals the rate constant of the enzyme-inhibitor complex dissociation. Ki defines the inhibition constant. For the determination of the specific activity of the enzymes, samples were incubated, and the reaction was stopped after 24 min. The specific activity was estimated by μg of protein.
For the determination of the specific activity of the enzymes, samples were incubated, and the reaction was stopped after 24 min. The specific activity was estimated by μg of protein.
Samples were incubated, and the reaction was stopped after 24 min. The specific activity was estimated by μg of protein.

[12] = system: Soybean plants; test: Spray test of soybean plants expressing HPPD for tolerance to tembotrione; type: in vivo; details: tembotrione (LAUDIS SC) 184 grams/hectare, one week after spraying; for Number of plants rated +: + = completely bleached; for Number of plants rated ++ or +++: slight tolerance or very little effect
Method: Soybean plants expressing an HPPD inhibitor tolerant enzyme of the present invention, along with a gene conferring tolerance to glyphosate and a gene conferring tolerance to glufosinate, were tested for tolerance to tembotrione. A DeVries Tracker Sprayer was calibrated prior to each spraying. The chemical formulation used for tembotrione testing was LAUDIS® SC formulation. Spray tests were conducted using 184 grams/hectare; 34.5% TBT. Tolerance was evaluated one week after spraying. A rating of “+” was assigned to plants that were completely bleached in the actively growing tissue. A rating of “++” was assigned to plants having slight tolerance, i.e., the newest plant tissues had some green and are not bleached completely. A rating of “+++” was assigned to plants showing very little effect from spray, i.e., some chlorosis or very slight bleaching was present.

[13] = system: HPPD; details: Table 14
[14] = system: HPPD
Method: For Km and Vmax value determinations the initial rates of the HPPD reaction at different substrate concentrations were determined from plots of HGA formed versus time and fitted to the Michaelis-Menten equation for unireactant enzymes using the ID Business Solutions Ltd. (www.idbs.com) XLfit software suite.
In below given Table 1, “Km” (Michaelis-Menten constant) means the kinetic parameter that is used to characterize an enzyme, and it is defined as the concentration of substrate that permits half maximal rate of the reaction. Km is further defined as the substrate concentration at which the reaction rate reaches half of its maximum value (Vmax/2) where Vmax has the meaning of being the maximum velocity of the reaction.

[15] = system: Soybean plants; test: Field trials of soybean events expressing HPPD, post-emergent HPPD inhibitor application, phytotoxicity; type: in vivo; details: for events exhibiting less than or equal to 20% average phytotoxicity: T1 events, evaluated after 7 days; for events exhibiting less than or equal to 20% average phytotoxicity / events exhibiting less than or equal to 25% maximum phytotoxicity: post-emergent tembotrione 200 g ai/ha; for events exhibiting less than or equal to 25% maximum phytotoxicity: field trial United States (Minnesota); for events exhibiting less than or equal to 25% maximum phytotoxicity / events exhibiting less than or equal to 18% maximum phytotoxicity: T2; for events exhibiting less than or equal to 18% maximum phytotoxicity: field trial in Argentina, post-emergent isoxaflutole 210 g ai/ha
Description: The plants were sprayed at the v2-v3 stage with 1× glufosinate. Five days after treatment with glufosinate, the surviving plants were sprayed with 2× tembotrione, 2× mesotrione, or 2× isoxaflutole and evaluated for phytotoxicity after 7 days.

[16] = PfHPPDEvo36 extract titrated on 250 uM inhibitor
[17] = spectrophotometric method, Table 6

T1 sequence (P80064 other isoform, or with tags, fused parts or gaps with the stated changes): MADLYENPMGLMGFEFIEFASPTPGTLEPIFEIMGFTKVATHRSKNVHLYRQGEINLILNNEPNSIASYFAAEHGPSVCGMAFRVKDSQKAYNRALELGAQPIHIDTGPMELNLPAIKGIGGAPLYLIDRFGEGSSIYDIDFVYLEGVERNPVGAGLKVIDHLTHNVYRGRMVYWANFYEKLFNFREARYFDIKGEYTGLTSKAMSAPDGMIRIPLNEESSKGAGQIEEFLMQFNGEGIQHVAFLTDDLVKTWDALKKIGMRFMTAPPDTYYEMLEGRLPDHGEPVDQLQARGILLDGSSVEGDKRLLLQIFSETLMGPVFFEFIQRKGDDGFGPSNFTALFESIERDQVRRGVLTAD

Which IC50 [1] does the source give for `CS(=O)(=O)c1ccc(C(=O)C2C(=O)CCCC2=O)c([N+](=O)[O-])c1` [Mesotrione, 2-[4-(methylsulfonyl)-2-nitrobenzoyl]-1,3-cyclohexanedione] here?
The IC50 was 2 µM.

And the IC50 [2]?
The IC50 was 3.98 µM.

And the IC50 [3]?
Its IC50 is 0.2 µM.

For `CS(=O)(=O)c1ccc(C(=O)C2C(=O)CCCC2=O)c(Cl)c1COCC(F)(F)F` [Tembotrione, 2-[2-chloro-4-(methylsulfonyl)-3-[(2,2,2,-tri-fluoroethoxy)methyl]benzoyl]-1,3-cyclo-hexanedione], which IC50 [4] is on record?
Its IC50 is 15.8 µM.

What about the IC50 [5] of the same molecule?
Its IC50 is 10 µM.

And the IC50 [6]?
Its IC50 is 15.8 µM.

And the “improved tolerance compared to PfG336W” value [7, 16]?
The value was 16 ×.

What about the “improved tolerance compared to PfHPPDEvo33” value [7, 16] of the same molecule?
Its value is 4 ×.

Which results are given for `CS(=O)(=O)c1cc(C(F)(F)F)ccc1C(=O)C(C#N)C(=O)C1CC1` (centres unmarked) [Diketonitrile, 2-cyano-3-cyclopropyl-1-(2-methylsulphonyl-4-trifluoromethylphenyl)-propane-1,3-dione]?
IC50 [4]: 100 µM; IC50 [1]: 50.1 µM; IC50 [8]: 10 µM; improved tolerance compared to PfG336W [7]: 16 ×; improved tolerance compared to PfHPPDEvo33 [7]: 4 ×; IC50 [2]: 20 µM; IC50 [9]: 31.6 µM

B1: PfHPPDEvo40: HPPD variant SEQ ID NO:8 (protein)
chain: MADLYENPMGLMGFEFIEFASPTPGTLEPIFEIMGFTKVATHRSKNVHLYRQGEINLILNNEPNSIASYFAAEHGPSVCGMAFRVKDSQKAYNRALELGAQPIHIDTGPMELNLPAIKGIGGAPLYLIDRFGEGSSIYDIDFVYLEGVERNPVGAGLKVIDHLTHNVYRGRMVYWANFYEKLFNFREARYFDIKGEYTGLTSKAMSAPDGMIRIPLNEESSKGAGQIEEFLMQFNGEGIQHVAFLTDDLVKTWDALKKIGMRFMTAPPDTYYEMLEGRLPDHGEPVDQLQARGILLDGSSVEGDKRLLLQIFSETLMGPVFFEFIQRKGDDGFGPSNFKELFESIERDQVRRGVLTAD
modifications: HPPD mutant - PfHPPDEvo40
Which results are given for B1?
tolerance to TBT and MST compared to PfG336W [10]: improved tolerance; Specific activity [11, 17]: 0.42 Delta Absorbance/24 min/μg pro; Percent ++ or +++ [12]: 31.4%; Number of plants rated + [12]: 60; Number of plants rated ++ or +++ [12]: 65

B2: PfHPPDEvo41: HPPD variant SEQ ID NO:16 (protein)
chain: B1 chain with S336W, K339A, E340Q
modifications: HPPD mutant - PfHPPDEvo41
How did the “tolerance to TBT and MST compared to PfG336W” value [10] turn out when B2 was run?
Its value is “improved tolerance”.

And the Km [13]?
The Km was 336 µM.

What about the Specific activity [11, 17] of the same molecule?
The Specific activity was 0.44 Delta Absorbance/24 min/μg pro.

And the Km ([14]; Table 9, same values as Table 5)?
Its Km is 336 µM.

And the Km ([14]; read-out: HPP Km, substrate HPP, Table 5)?
The Km was 336 µM.

And the “HPP Kcat” value ([14]; substrate HPP, Table 5)?
The value was 1.1 s⁻¹.

And the “events exhibiting less than or equal to 20% average phytotoxicity” value [15]?
The value was “Nine out of 18”.

And the “events exhibiting less than or equal to 25% maximum phytotoxicity” value [15]?
The value was 7 out of 7.

What about the “events exhibiting less than or equal to 18% maximum phytotoxicity” value [15] of the same molecule?
The value was 5 out of 10.

And the “Percent ++ or +++” value [12]?
The value was 32.75%.

What about the “Number of plants rated +” value [12] of the same molecule?
The value was 412.

And the “Number of plants rated ++ or +++” value [12]?
Its value is 279.

B3: PfHPPDEvo36: HPPD variant SEQ ID NO:7; 335 serine, 336 serine, 339 threonine, 340 glutamine relative to PfG336W (protein)
chain: B1 chain with P335S, K339T, E340Q
modifications: HPPD mutant - PfHPPDEvo36
With B3 as the molecule, how does the Specific activity [11, 17] read?
The Specific activity was 0.82 Delta Absorbance/24 min/μg pro.

And the “Percent ++ or +++” value [12]?
The value was 20.45%.

What about the “Number of plants rated +” value [12] of the same molecule?
The value was 47.

And the “Number of plants rated ++ or +++” value [12]?
The value was 18.

B4: PfG336W: Pseudomonas fluorescens HPPD mutant, glycine at position 336 replaced by tryptophan, SEQ ID NO:2 (protein)
chain: B1 chain with P335E, S336W, E340A
modifications: HPPD mutant - PfG336W
Which results are given for B4?
Specific activity ([11]; Table 1): 0.40 ΔE/24 min μg Protein; Specific activity [11, 17]: 0.4 Delta Absorbance/24 min/μg pro; events exhibiting less than or equal to 20% average phytotoxicity [15]: 0 out of 18; events exhibiting less than or equal to 25% maximum phytotoxicity [15]: 1 out of 11; events exhibiting less than or equal to 18% maximum phytotoxicity [15]: 1 out of 3; Percent ++ or +++ [12]: 7.12%; Number of plants rated + [12]: 811; Number of plants rated ++ or +++ [12]: 160

Source: US10793872B2, “HPPD variants and methods of use” (Bayer CropScience AG, priority 2012, dated 2020)
